Test results: patent publication US20210347867A1 (GEORG AUGUST UNIVERSIT T G TTINGEN STIFTUNG FFENTLICHEN …, published 2021)
Read-outs that look alike come from different tables or passages of the source.

Tests used:
amyloid peptide AβpE3-42 [1] = target: T1, amyloid peptide AβpE3-42 (UniProt P05067 674-713, N-terminal pyroglutamate (pE) at Aβ position 3); assay: ELISA, plate coated with AβpE3-42 from California peptides (Cal Hu), antibody titrated, A650nm
T1 construct: domain: AβpE3-42; Bought synthetic peptide; also called AβpGlu3-42; Aβ(Glp3)3-42
T1 sequence (P05067 674-713 limits assumed): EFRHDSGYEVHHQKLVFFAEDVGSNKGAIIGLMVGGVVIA

amyloid peptide AβpE3-42 [2] = target: T1, amyloid peptide AβpE3-42; assay: ELISA, plate coated with AβpE3-42, antibody titrated, A650nm
Procedure: (§1) Each well of a […] MaxiSorp plate (Nunc) was coated with 50 μL aliquots of 200 ng/mL of 1-42, pE3-42 or 4-42 amyloid peptides in PBS and incubated overnight at 4° C. The wells were washed 3× with PBS-T (0.1% Tween20) and blocked with 150 μL of 5% milk in PBS/0.05% Tween20 per well. The wells were then incubated at RT with shaking for 1 hour and washed 3× with PBS-T (0.1% Tween20). 50 μl of primary antibody serially diluted in 1% milk PBS/0.05% Tween20 was added to the wells of the assay plate using a 3-fold dilution series starting from ˜100 μg/mL. The incubation and washing step was then repeated. Anti-human kappa chain HRP (Sigma A7164-1 mL) was diluted 4,000-fold in PBS/1% milk/0.05% Tween20 and 50 μl added to each well. The incubation and washing step was repeated and then 75 μL of K-Blue substrate (Neogen) was added per well and incubated for 5-10 minutes at RT. The reaction was stopped by adding 50 μl of RED STOP solution (Neogen) to each well and the optical density was read at 650 nm.

amyloid peptide AβpE3-42 [3] = target: T1, amyloid peptide AβpE3-42; assay: ELISA, plate coated with AβpE3-42 from PSL, antibody titrated, A650nm
Procedure: as §1

amyloid peptide Aβ4-42 = target: T2, amyloid peptide Aβ4-42 (UniProt P05067 675-713); assay: ELISA, plate coated with Aβ4-42 from PSL, antibody titrated, A650nm
T2 construct: domain: Aβ4-42; Bought synthetic peptide; also called Anaspec Aβ4-42
T2 sequence (P05067 675-713 limits assumed): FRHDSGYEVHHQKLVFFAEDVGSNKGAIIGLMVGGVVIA

amyloid peptide AβpE3-42 [4] = target: T1, amyloid peptide AβpE3-42; assay: ELISA, plate coated with AβpE3-42 (target by legend paragraph 24), antibody titrated, A650nm
Procedure: as §1

amyloid peptide AβpE3-42 [5] = target: T1, amyloid peptide AβpE3-42; assay: ELISA, plate coated with AβpE3-42 from PSL, antibody titrated, A650nm; remark: listed apart in the source
amyloid peptide AβpE3-42 [6] = target: T1, amyloid peptide AβpE3-42; assay: ELISA, plate coated with AβpE3-42, antibody titrated, A650nm; remark: listed apart in the source
Procedure: as §1

amyloid peptide AβpE3-42 [7] = target: T1, amyloid peptide AβpE3-42; assay: ELISA, plate coated with AβpE3-42, antibody titrated, blank-subtracted OD650
Procedure: as §1
Therefore, F67Y, Y68N, I39W and an additional variant that combined F67Y and Y68N were generated (Table 2) and binding to Aβ1-42, AβpE3-42 and 4-42 was investigated. […] Five additional variants of the heavy chain were generated with the following mutations, S53M, S53H, R100H, L103R and L103H (Table 4b). In addition, five variants of the light chain were also generated RKF (N92W), RKG (N92Y), RKH (N92H), RKI (L94R) and RIC (L94H).

amyloid peptide AβpE3-42 [8] = target: T1, amyloid peptide AβpE3-42; assay: ELISA, plate coated with AβpE3-42 (PSL), antibody titrated, blank-subtracted OD650
Procedure: as §1

amyloid peptide AβpE3-42 [9] = target: T1, amyloid peptide AβpE3-42; assay: ELISA, plate coated with AβpE3-42, antibody titrated, signal as % Max
Procedure: as §1

B1: murine NT4X-167 antibody (antibody, V domains shown)
VH: QVQLKQSGPGLVQPSQSLSITCTVSGFSLTSYGIHWVRQSPGKGLEWLGVMWSGGITDFYAAFISRLSISRDISKSQVFFKMNSLQADDTAIYYCARGSRYALDYWGQGTSVSVSS
VL: DIQMTQTTSSLSASLGDRVTISCRASQDISNYLNWYQQKPDGTVKLLIYYTSRLHSGVPSRFSGSGSGTDYSLTISNLEQEDIATYFCQQGNTLPPTFGGGTKLEIK
notes: Mouse hybridoma antibody; also called original mouse NT4X antibody
EC50 (amyloid peptide AβpE3-42 [1]): 0.0157 µM
EC50 (read off the curve) (amyloid peptide AβpE3-42 [2]): ~0.5 mg/L
EC50 (amyloid peptide AβpE3-42 [3]): 0.0249 µM
binding result (amyloid peptide Aβ4-42): binds
EC50 (amyloid peptide AβpE3-42 [4]): 2.4 mg/L
EC50 (amyloid peptide AβpE3-42 [5]): 0.0249 µM
EC50 (read off the curve) (amyloid peptide AβpE3-42 [6]): ~0.5 mg/L

B2: (rcNT4X_S6A) R1 (antibody, V domains shown)
VH: QVQLQESGPGLVKPSETLSLTCTVSGFSLSSYGISWIRQPPGKGLEWIGVMWSGGITDFYAAFISRVTISRDTSKNQVSLKLSSVTAADTAVYYCARGSRYALDYWGQGTLVTVSS
VL: DIQMTQSPSSLSASVGDRVTITCRASQDISNYLNWYQQKPGKAPKLLIYYTSRLHSGVPSRFSGSGSGTDFTLTISSLQPEDFATYYCQQGNTLPPTFGGGTKLEIK
notes: also called RHS6/RKA
binding result (amyloid peptide AβpE3-42 [7]): no binding (tested: about 120 ug/ml)

B3: humanized NT4X-167 RHT/RKA (antibody, mouse IgG1, V domains shown)
VH: QVQLQESGPGLVKPSETLSLTCTVSGFSLTSYGIHWIRQPPGKGLEWIGVMWSGGITDFYAAFISRVTISRDTSKNQVSLKLSSVTAADTAVYYCARGSRYALDYWGQGTLVTVSS
VL: DIQMTQSPSSLSASVGDRVTITCRASQDISNYLNWYQQKPGKAPKLLIYYTSRLHSGVPSRFSGSGSGTDFTLTISSLQPEDFATYYCQQGNTLPPTFGGGTKLEIK
notes: also called TA
binding result (amyloid peptide AβpE3-42 [8]): binds

B4: humanized NT4X-167 RHO/RKA (antibody, mouse IgG1, V domains shown)
VH: QVQLQESGPGLVKPSETLSLTCTVSGFSLTSYGIHWIRQPPGKGLEWLGVMWSGGITDFYAAFISRVTISRDTSKNQVSLKMSSVTAADTAVYYCARGSRYALDYWGQGTLVTVSS
VL: DIQMTQSPSSLSASVGDRVTITCRASQDISNYLNWYQQKPGKAPKLLIYYTSRLHSGVPSRFSGSGSGTDFTLTISSLQPEDFATYYCQQGNTLPPTFGGGTKLEIK
binding result (amyloid peptide AβpE3-42 [2]): binds

B5: humanized NT4X-167 RHN/RKA (antibody, mouse IgG1, V domains shown)
VH: QVQLQESGPGLVKPSETLSLTCTVSGFSLTSYGIHWIRQPPGKGLEWIGVMWSGGITDFYAAFISRLTISRDTSKNQVSLKMSSVTAADTAVYYCARGSRYALDYWGQGTLVTVSS
VL: DIQMTQSPSSLSASVGDRVTITCRASQDISNYLNWYQQKPGKAPKLLIYYTSRLHSGVPSRFSGSGSGTDFTLTISSLQPEDFATYYCQQGNTLPPTFGGGTKLEIK
binding result (amyloid peptide AβpE3-42 [2]): binds

B6: humanized NT4X-167 RHP/RKA (antibody, mouse IgG1, V domains shown)
VH: QVQLQESGPGLVKPSETLSLTCTVSGFSLTSYGIHWIRQPPGKGLEWLGVMWSGGITDFYAAFISRLTISVDTSKNQVSLKMSSVTAADTAVYYCARGSRYALDYWGQGTLVTVSS
VL: DIQMTQSPSSLSASVGDRVTITCRASQDISNYLNWYQQKPGKAPKLLIYYTSRLHSGVPSRFSGSGSGTDFTLTISSLQPEDFATYYCQQGNTLPPTFGGGTKLEIK
binding result (amyloid peptide AβpE3-42 [2]): binds

B7: humanized NT4X-167 RHL/RKA (antibody, mouse IgG1, V domains shown)
VH: QVQLQESGPGLVKPSETLSLTCTVSGFSITSYGIHWIRQPPGKGLEWLGVMWSGGITDFYAAFISRLTISRDTSKNQVSLKMSSVTAADTAVYYCARGSRYALDYWGQGTLVTVSS
VL: DIQMTQSPSSLSASVGDRVTITCRASQDISNYLNWYQQKPGKAPKLLIYYTSRLHSGVPSRFSGSGSGTDFTLTISSLQPEDFATYYCQQGNTLPPTFGGGTKLEIK
binding result (amyloid peptide AβpE3-42 [2]): binds

B8: humanized NT4X-167 RHQ/RKA (antibody, mouse IgG1, V domains shown)
VH: QVQLQESGPGLVKPSETLSLTCTVSGFSLTSYGIHWIRQPPGKGLEWLGVMWSGGITDFYAAFISRLTISRDTSKNQFSLKMSSVTAADTAVYYCARGSRYALDYWGQGTLVTVSS
VL: DIQMTQSPSSLSASVGDRVTITCRASQDISNYLNWYQQKPGKAPKLLIYYTSRLHSGVPSRFSGSGSGTDFTLTISSLQPEDFATYYCQQGNTLPPTFGGGTKLEIK
binding result (amyloid peptide AβpE3-42 [2]): binds

B9: humanized NT4X-167 RHK/RKA (antibody, mouse IgG1, V domains shown)
VH: QVQLQESGPGLVKPSETLSLTCTVSGGSLTSYGIHWIRQPPGKGLEWLGVMWSGGITDFYAAFISRLTISRDTSKNQVSLKMSSVTAADTAVYYCARGSRYALDYWGQGTLVTVSS
VL: DIQMTQSPSSLSASVGDRVTITCRASQDISNYLNWYQQKPGKAPKLLIYYTSRLHSGVPSRFSGSGSGTDFTLTISSLQPEDFATYYCQQGNTLPPTFGGGTKLEIK
binding result (amyloid peptide AβpE3-42 [2]): binds

B10: humanized NT4X-167 RHR/RKA (antibody, mouse IgG1, V domains shown)
VH: QVQLQESGPGLVKPSETLSLTCTVSGFSLTSYGIHWIRQPPGKGLEWLGVMWSGGITDFYAAFISRLTISRDTSKNQVSLKLSSVTAADTAVYYCARGSRYALDYWGQGTLVTVSS
VL: DIQMTQSPSSLSASVGDRVTITCRASQDISNYLNWYQQKPGKAPKLLIYYTSRLHSGVPSRFSGSGSGTDFTLTISSLQPEDFATYYCQQGNTLPPTFGGGTKLEIK
binding result (amyloid peptide AβpE3-42 [2]): binds

B11: (rcNT4X_S8A) R1 (antibody, V domains shown)
VH: QVQLQESGPGLVKPSETLSLTCTVSGFSLSSYGISWIRQPPGKGLEWIGVMWSGGITNFYPSLKSRVTISRDTSKNQVSLKLSSVTAADTAVYYCARGSRYALDYWGQGTLVTVSS
VL: DIQMTQSPSSLSASVGDRVTITCRASQDISNYLNWYQQKPGKAPKLLIYYTSRLHSGVPSRFSGSGSGTDFTLTISSLQPEDFATYYCQQGNTLPPTFGGGTKLEIK
notes: also called RHS8/RKA
binding result (amyloid peptide AβpE3-42 [7]): no binding (tested: about 120 ug/ml)

B12: humanized NT4X-167 RHB/RKB (antibody, mouse IgG1, V domains shown)
VH: QVQLQESGPGLVKPSETLSLTCTVSGFSLTSYGIHWIRQPPGKGLEWLGVMWSGGITDFYAAFISRLTISRDTSKNQVSLKMSSVTAADTAVYYCARGSRYALDYWGQGTLVTVSS
VL: DIQMTQSPSSLSASVGDRVTITCRASQDISNYLNWYQQKPGGAPKLLIYYTSRLHSGVPSRFSGSGSGTDYTLTISSLQPEDFATYFCQQGNTLPPTFGGGTKLEIK
notes: also called HB/KB
EC50 (amyloid peptide AβpE3-42 [9]): 0.377 mg/L
EC50 (amyloid peptide AβpE3-42 [4]): 2.74 mg/L

B13: humanized NT4X-167 RHM/RKA (antibody, mouse IgG1, V domains shown)
VH: QVQLQESGPGLVKPSETLSLTCTVSGFSLSSYGIHWIRQPPGKGLEWLGVMWSGGITDFYAAFISRLTISRDTSKNQVSLKMSSVTAADTAVYYCARGSRYALDYWGQGTLVTVSS
VL: DIQMTQSPSSLSASVGDRVTITCRASQDISNYLNWYQQKPGKAPKLLIYYTSRLHSGVPSRFSGSGSGTDFTLTISSLQPEDFATYYCQQGNTLPPTFGGGTKLEIK
binding result (amyloid peptide AβpE3-42 [2]): binds

B14: humanized NT4X-167 RHB/RKA (antibody, mouse IgG1, V domains shown)
VH: QVQLQESGPGLVKPSETLSLTCTVSGFSLTSYGIHWIRQPPGKGLEWLGVMWSGGITDFYAAFISRLTISRDTSKNQVSLKMSSVTAADTAVYYCARGSRYALDYWGQGTLVTVSS
VL: DIQMTQSPSSLSASVGDRVTITCRASQDISNYLNWYQQKPGKAPKLLIYYTSRLHSGVPSRFSGSGSGTDFTLTISSLQPEDFATYYCQQGNTLPPTFGGGTKLEIK
notes: also called BA
EC50 (amyloid peptide AβpE3-42 [9]): 0.341 mg/L
EC50 (amyloid peptide AβpE3-42 [4]): 3.86 mg/L
